Four molecules from PMC11855334, “Exploring the Potential of Glutathione Reductase Overexpression to Improve Tellurium Nanoparticle Production in Escherichia coli” (International Journal of Molecular Sciences, 2025) can be followed below.

Series [1] addresses glutathione reductase from Pseudomonas lini strain BNF22 (Pseudomonas lini (strain BNF22)). In words: SEC; Superdex 200; 20 mM sodium phosphate pH 7.4, 200 mM NaCl, 1 mM β-mercaptoethanol; elution times compared to a gel filtration protein standard; homodimer.
Series [2] concerns the molecule itself. The series is described as above.

On to “glutathione reductase from Pseudomonas lini strain BNF22 (enzyme)”, for which the stoichiometry N in series [1] was found to be 2.

B1: glutathione reductase from Psychrobacter immobilis strain BNF08 (enzyme)
chain: MTKHYDYIAIGGGSGGIASINRAASYGKKCAVIEANQLGGTCVNLGCVPKKVMWYGAQIAEAIHKYAPDYGFNVDVKGFDFQKLVQSRQQYIENIHRSYDNNLAKNGVEVIKGFAKFVDTNTVEVNGELITADHILIATGGHPIQPDIKGAEYGIDSDGFFALNHLPKRVAIVGAGYIAVEIAGVLNSLGAEVHLYVRQHSPLRSFDHSVVEALLIEMEQDGIQLHTNTTLTEVNKNEDGSLTLCTENGSLDTTDCLIWAIGRAPSTDNINLQVTGVETNEIGKIKVDKFQNTNVKNIYAVGDIIENSVDLTPVAIAAGRRLSERLFNNKPNEHLDYTLIPTVIFTHPAIGTIGLSEIDAVERYGKENIKCYKSTFTSMYSAVTQHRQKCMMKLVCLGDEEKVIGLHGLGFGVDEMIQGFAVAIKMGATKADFDNTVAIHPTGSEEFVTMR
With B1, the “stoichiometry N” value in series [2] turned out to be 2.

B2: glutathione reductase from Enterobacter cloacae strain MF01 (enzyme)
chain: MTKHYDYIAIGGGSGGIASINRAAMYGQKCALIEAKALGGTCVNVGCVPKKVMWHAAQIREAIHMYGPDYGFDTTINHFDWEKLIASRTAYIDRIHTSYDNVLGKNNVDVIHGFARFVDAKTIEVNGETITADHILIATGGRPSHPNIPGAEYGIDSDGFFVLPALPERVAVVGAGYIAVELAGVINGLGAEAHLFVRKHAPLRSFDPLIVDTLVEVMNTEGPTLHTNAVPKAVIKNADGSLTLELEDGRSQTVDCLIWAIGREPANDNFNLAVTGVKTDEKGYIVVDKFQNTSVPGIYAVGDNTGAVELTPVAVAAGRRLSERLFNNKPDEHLDYSNIPTVVFSHPPIGTVGLTEPQAREQYGDDQVKVYKSAFTAMYTAVTSHRQPCRMKLVCVGPEEKIVGIHGIGFGMDEILQGFAVALKMGATKKDFDNTVAIHPTAAEEFVTMR
For B2, in series [2], the “stoichiometry N” value came to 2.

B3: glutathione reductase from E. coli (enzyme, UniProt P06715 1-450, looked up)
chain: MTKHYDYIAIGGGSGGIASINRAAMYGQKCALIEAKELGGTCVNVGCVPKKVMWHAAQIREAIHMYGPDYGFDTTINKFNWETLIASRTAYIDRIHTSYENVLGKNNVDVIKGFARFVDAKTLEVNGETITADHILIATGGRPSHPDIPGVEYGIDSDGFFALPALPERVAVVGAGYIAVELAGVINGLGAKTHLFVRKHAPLRSFDPMISETLVEVMNAEGPQLHTNAIPKAVVKNTDGSLTLELEDGRSETVDCLIWAIGREPANDNINLEAAGVKTNEKGYIVVDKYQNTNIEGIYAVGDNTGAVELTPVAVAAGRRLSERLFNNKPDEHLDYSNIPTVVFSHPPIGTVGLTEPQAREQYGDDQVKVYKSSFTAMYTAVTTHRQPCRMKLVCVGSEEKIVGIHGIGFGMDEMLQGFAVALKMGATKKDFDNTVAIHPTAAEEFVTMR
notes: glutathione reductase (GR) of Escherichia coli; cloned in earlier work of the same laboratory; also called E. coli GR; GR; source: E. coli C41 (DE3), purified (HisTrap HP)
B3: the “stoichiometry N” value in series [2] worked out at 2.
